From PMC8144572, “Molecular model of a sensor of two-component signaling system” (Scientific Reports, 2021)

B1: full-length transducer NpHtrII from Natronomonas pharaonis (natural protein)
chain: not shown
notes: Sensory rhodopsin II transducer (NpHtrII), Natronomonas pharaonis, UniProt P42259; gene optimised for expression in E. coli; also called cognate transducer; source: E. coli BL21-AI (SAXS) or BL21(DE3) (SANS), co-expressed with NpSRII, solubilised in DDM, purified (Ni-NTA, SEC); not shown: 6xHis-tag (with ENS-linker), C-terminal, kept
B2: full-length NpSRII/NpHtrII complex (complex)
chain 1: MVGLTTLFWLGAIGMLVGTLAFAWAGRDAGSGERRYYVTLVGISGIAAVAYVVMALGVGWVPVAERTVFAPRYIDWILTTPLIVYFLGLLAGLDSREFGIVITLNTVVMLAGFAGAMVPGIERYALFGMGAVAFLGLVYYLVGPMTESASQRSSGIKSLYVRLRNLTVILWAIYPFIWLLGPPGVALLTPTVDVALIVYLDLVTKVGFGFIALDAAATLRAEHGESLAGVDTDAPAVAD
chain 2: not shown
notes: Sensory rhodopsin II (NpSRII), Natronomonas pharaonis, UniProt P42196; no limits stated; as m1; Sensory rhodopsin II transducer (NpHtrII), Natronomonas pharaonis, UniProt P42259; as m2; also called sensory rhodopsin II/transducer complex; full-length phototaxis complex; source: E. coli BL21-AI (SAXS) or BL21(DE3) (SANS), co-expressed, solubilised in DDM, purified (Ni-NTA, SEC); not shown: …

Key:
[1] = biological target: the molecule itself; test: SANS; full-length complex 0.40 mg/ml in D2O buffer, 4.0 M NaCl, 100 mM Na/Na-Pi pD 8.0, 1 mM EDTA, 0.05% DDM; OLIGOMER fit to a mixture of dimers and trimers of dimers (trimer of dimers = six NpSRII/NpHtrII units)
[2] = biological target: the molecule itself; test: SAXS; detergent-solubilised (DDM) complex, peak fractions after gel filtration; low salt (150 mM NaCl); 0.57 mg/ml full-length and 0.78 mg/ml truncated complex; BM29 (ESRF); curves fitted with atomistic dimer models with a detergent belt (MEMPROT, CRYSOL3)

Row | Protein | binding result [1] | stoichiometry N [1] | stoichiometry N [2]
1 | B1 | binds |  | 
2 | B2 |  | 6 | 2
